What is called EC50 is the concentration that produces a half-maximal response. The EC50 (read off the curve) is the concentration giving half of the maximal effect. What is called Kd is the concentration at which binding is half-saturated. Usually koff stands for the first-order rate constant of dissociation. As a reminder, the kon is a measure of how fast the partners come together.

This is an account of results in US20210284749A1 (ABL BIO, published 2021).

Experiment [1] has as its target T1, recombinant human BCMA (ELISA antigen, construct not specified) (human, UniProt Q02223 1-54).
T1 construct: Fc 1-51; Fc/His 1-51; Fc 4-48) was coated in these ELISAs; also called recombinant BCMA; recombinant protein
T1 sequence: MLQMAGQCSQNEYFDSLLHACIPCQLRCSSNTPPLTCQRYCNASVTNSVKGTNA
Put plainly: ELISA on recombinant BCMA. On the technique in general: An ELISA detects its analyte on a solid surface through an enzyme-linked reagent.

For experiment [2], the target named is T1, recombinant human BCMA (ELISA antigen, …). Put plainly: ELISA, 100 ng coated antigen. The procedure:
(§1) 100 ng of human, monkey, mouse, and rat BCMA antigens prepared in Example 1.1 were coated on the bottom of the plate, and then coated with 3% BSA to block nonspecific binding. Using the selected anti-BCMA IgG antibodies as primary antibodies, and the anti-human Fab HRP (1:20000 dilution) as a secondary antibody, ELISA assay was performed as described in Example 1.3.
(§2) Absorbancies at 450 nm measured with a microplate reader are shown in FIG. 3, and half maximal effective concentrations (EC₅₀) (nM) are shown in Table 9.

In experiment [3] the target is T2, monkey (Rhesus) BCMA (1-53) fused to the Fc region of human IgG1 (monkey (Rhesus); human, UniProt Q02223 1-54).
T2 construct: Sino Biological Inc. 90103-C02H; also called monkey BCMA; Monkey BCMA (1-53); not shown: Fc region of human IgG1
As to the kind of experiment: ELISA, 100 ng coated antigen. On the procedure:
as §1, §2

Experiment [4] concerns the target T3, rat BCMA (1-49) fused to the Fc region of human IgG1 (rat; human).
T3 construct: Sino Biological Inc. 80156-R01H; also called 80156-R01H; not shown: Fc region of human IgG1
T3 chain: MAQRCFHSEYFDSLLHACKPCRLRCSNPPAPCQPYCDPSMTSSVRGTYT
Put plainly: ELISA on 100 ng coated rat BCMA, antibody titrated, anti-human Fab HRP, absorbance 450 nm. The procedure: as §1, §2

The target in experiment [5] is T4, human monomeric BCMA antigen (human, UniProt Q02223 5-54, limits assumed).
T4 construct: also called recombinant human BCMA antigens
T4 chain: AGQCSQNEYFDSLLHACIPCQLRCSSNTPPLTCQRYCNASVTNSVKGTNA
As to the kind of experiment: SPR (Biacore T200), antibody captured on protein A chip, antigen 6.25-100 nM. The procedure:
In particular, the prepared antibodies were diluted with a 1×HPS-EP buffer (GE Healthcare, BR-1006-69). The target antigen-binding affinity analysis was performed using a Biacore T200 (GE Healthcare). The antibodies were flowed onto a protein A chip at a contact time of 60 seconds, a stabilization time of 30 seconds, and a flow rate of 30 μl/min until a capture level reached 128 RU (Response Unit), thereby preparing an antibody-captured protein A chip.
The antigen was sequentially diluted with a 1×HPS-EP buffer, by 2-fold each time, from 100 nM to 6.25 nM, thereby preparing a total of […] samples. The 1×HPS-EP buffer was used as a negative control group (blank).
The prepared antigen was flowed across the antibody-captured protein A chip at a flow rate of 30 μl/min for an association time of 60 seconds, followed by a disassociation phase for 180 seconds. Regeneration was performed with a 10-mM Glycine-HCL (pH 1.5) buffer (GE Healthcare, BR-1003-54) at a flow rate of 30 μl/min for a contact time of 30 seconds.

Experiment [6] concerns the target T2, monkey (Rhesus) BCMA (1-53) fused to …. Put plainly: ELISA on 100 ng coated rhesus BCMA, antibody titrated, anti-human Fab HRP, absorbance 450 nm. The procedure:
as §1, §2

For experiment [7] the target is unchanged. Put plainly: BLI (Octet), monkey BCMA. In general terms: Biolayer interferometry detects binding as a change in optical thickness at a sensor tip.
Experiment [8] addresses T1, recombinant human BCMA (ELISA antigen, …). As to the kind of experiment: ELISA on 100 ng coated human BCMA, antibody titrated, anti-human Fab HRP, absorbance 450 nm. On the procedure:
as §1, §2

In experiment [9] the target is T5, human BCMA expressed on cell surface (H929, OPM-2, CHOK1-hBCMA cells) (human, UniProt Q02223 1-184).
T5 construct: also called cell-surface BCMA; BCMA on cell surface
T5 sequence: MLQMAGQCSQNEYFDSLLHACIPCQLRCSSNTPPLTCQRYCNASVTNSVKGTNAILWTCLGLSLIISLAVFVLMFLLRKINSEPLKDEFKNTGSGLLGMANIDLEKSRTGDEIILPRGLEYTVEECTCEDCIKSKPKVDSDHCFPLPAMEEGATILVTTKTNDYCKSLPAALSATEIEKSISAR
Put plainly: FACS on H929 cells, 10 µg/ml antibody, anti-human Fc-FITC; open histogram shifted right of the filled control. The procedure:
Multiple myeloma cancer cells H929 (ATCC, CRL9068™) and OPM-2 cell line (DSMZ, ACC 50), which are known to express BCMA, were prepared, and human BCMA-overexpressed CHOK1-hBCMA cell line (constructed by ABIBio) were prepared.
10 μg/ml of the seven IgG antibodies (B58, 5A6, 5D5, 5B5, 1H, 2G, and 5G) purified in Example 1.4 was added to the prepared cells, incubated at 4° C. for 1 hour, and then washed two times with a PBS buffer solution. The anti-human Fc-FITC was diluted in 1:400, incubated at 4° C. for 1 hour, and then washed with a PBS buffer solution. These processes were repeated. In FIGS. 2A and 2B, MFI indicates mean fluorescence intensity.

Experiment [10] has as its target T5, human BCMA expressed on cell surface …. As to the kind of experiment: FACS on H929 cells.
Experiment [11] concerns the target T1, recombinant human BCMA (ELISA antigen, …). As to the kind of experiment: ELISA on coated recombinant human BCMA, antibody titrated, HRP anti-Fab detection, absorbance 450 nm. On the procedure: Specific binding abilities of the anti-BCMA IgG antibodies isolated in Example 1.4 to recombinant BCMA protein were analyzed by ELISA.
Using recombinant human BCMA or monkey BCMA as an antigen, and HRP-conjugated Fab polychronal antibody reagent (Pierce, 31414) as a secondary antibody, ELISA was performed as described in Example 1.3.

“And” between values parts separate entries of the source, which are not always exact repeats. Equal entries are not always repeated.

B1: anti-BCMA IgG antibody 5D5 (antibody, V domains shown)
VH: EVQLLESGGGLVQPGGSLRLSCAASGFTFSDYGLSWVRQAPGKGLEWVSLIDSSGSSTFYADSVKGRFTISRDNSKNTLYLQMNSLRAEDTAVYYCAKEHGLFDSWGQGTLVTVSS
VL: EIVLTQSPGTLSLSPGERATLSCKASQDIDDDINWYQQKPGQAPRLLIYDASLRATGIPDRFSGSGSGTDFTLTISRLEPEDFAVYYCQQSLRTPITFGQGTKLEIKR
notes: also called 5D5 WT; 5D5 antibody
As for B1, the EC50 is 0.0708 nM and 0.0652 nM in experiment [1]; 140 nM in [2]; 94 nM in experiment [3]. Besides, the “EC50 (read off the curve)” value was about 0.02 µg/mL in [4], about 0.01 µg/mL in experiment [6], about 0.01 µg/mL in experiment [8] and about 0.1 µg/mL in experiment [11]. Also, the Kd in experiment [5] is 22.8 nM; in experiment [7], 0.346 nM. Also, the koff in [5] was 0.0601 s⁻¹; in [7], 0.000585 s⁻¹. Also, the kon stood at 2.63e+06 M⁻¹ s⁻¹ in experiment [5] and 1.69e+06 M⁻¹ s⁻¹ in experiment [7]. The MFI in experiment [9] worked out at 29.9; in [10], 36.4.

B2: anti-BCMA IgG antibody 5A6 (antibody, V domains shown)
VH: EVQLLESGGGLVQPGGSLRLSCAASGFTFSNYGVHWVRQAPGKGLEWVSYISYSGGTYYNPSLKSRFTISRDNSKNTLYLQMNSLRAEDTAVYYCARDSDDFGFDYWGQGTLVTVSS
VL: QSVLTQPPSASGTPGQRVTISCQGDSLRSYYVNWYQQLPGTAPKLLIYDHSKRPTGVPDRFSGSKSGTSASLAISGLRSEDEADYYCQSYDSSTVVFGGGTKLTVLG
notes: also called 5A6 WT; 5A6 antibody
Turning to B2, the EC50 was 0.0631 nM and 0.0643 nM and 0.077 nM in [1]; 100 nM in experiment [2]; 153 nM in [3]. The binding result in [4] was “no binding (tested: about 30 µg/ml)”. Moreover, the Kd came out at 62.4 nM in [5] and 4.51 nM in experiment [7]. In addition, the koff was 0.0249 s⁻¹ in experiment [5] and 0.00163 s⁻¹ in experiment [7]. Besides, the results for the on-rate (kon) in [5] and in experiment [7] were 399000 M⁻¹ s⁻¹ and 361000 M⁻¹ s⁻¹, respectively. Also, the “EC50 (read off the curve)” value in experiment [6] was about 0.02 µg/mL; in experiment [8] it was about 0.02 µg/mL; in [11], about 0.1 µg/mL. For the same molecule, the MFI in experiment [9] came to 100; in experiment [10], 68.2.
